In patent US20080221021A1, “Novel Corticotropin-Releasing Factor Receptor 1 (Crfr1) Agonist” (Max-Planck-Gesellschaft Zur Forderung Der, priority 2004, published 2008):

Legend:
Assay in all cases: competition binding
Details in all cases: modification not given
rat CRFR1α (rat), P35353 = target: T1, rat CRFR1α (rat), P35353
T1 chain: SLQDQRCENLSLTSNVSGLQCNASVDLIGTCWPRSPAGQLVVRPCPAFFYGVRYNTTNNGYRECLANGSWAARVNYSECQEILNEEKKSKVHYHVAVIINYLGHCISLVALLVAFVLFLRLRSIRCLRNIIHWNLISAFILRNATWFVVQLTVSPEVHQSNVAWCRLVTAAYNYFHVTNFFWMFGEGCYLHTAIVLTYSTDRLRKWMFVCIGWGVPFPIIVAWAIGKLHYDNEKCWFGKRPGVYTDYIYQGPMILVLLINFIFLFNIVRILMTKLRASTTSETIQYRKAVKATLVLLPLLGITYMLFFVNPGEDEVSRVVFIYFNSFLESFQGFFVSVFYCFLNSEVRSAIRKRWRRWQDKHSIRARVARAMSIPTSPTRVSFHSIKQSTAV

[1] = target: T2, rat CRFBP C-terminally fused with a His6 sequence (rat), P24388
T2 chain: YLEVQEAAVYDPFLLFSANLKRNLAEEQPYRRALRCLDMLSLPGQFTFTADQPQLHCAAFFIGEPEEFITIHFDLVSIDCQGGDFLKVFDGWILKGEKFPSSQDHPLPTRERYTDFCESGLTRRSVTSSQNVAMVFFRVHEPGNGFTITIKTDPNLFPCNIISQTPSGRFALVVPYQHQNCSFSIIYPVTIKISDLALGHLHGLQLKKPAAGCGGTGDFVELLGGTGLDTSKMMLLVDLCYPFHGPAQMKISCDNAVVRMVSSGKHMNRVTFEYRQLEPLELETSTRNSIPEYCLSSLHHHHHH

[2] = target: T3, mouse CRFR2β (mouse), Q60748
T3 chain: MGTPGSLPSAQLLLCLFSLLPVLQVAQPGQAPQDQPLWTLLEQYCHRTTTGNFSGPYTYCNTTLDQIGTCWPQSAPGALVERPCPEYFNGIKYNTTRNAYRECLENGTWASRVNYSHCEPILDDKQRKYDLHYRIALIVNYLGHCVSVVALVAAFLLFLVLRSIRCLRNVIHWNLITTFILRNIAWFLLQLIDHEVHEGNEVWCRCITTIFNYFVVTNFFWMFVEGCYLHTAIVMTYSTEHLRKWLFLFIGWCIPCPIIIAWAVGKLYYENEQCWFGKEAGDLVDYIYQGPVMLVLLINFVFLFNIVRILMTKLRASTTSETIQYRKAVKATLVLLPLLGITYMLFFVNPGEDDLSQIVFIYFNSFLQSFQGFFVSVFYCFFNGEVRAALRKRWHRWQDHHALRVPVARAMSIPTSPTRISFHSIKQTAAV

SQEPPISLDLTFHLLREVLEMTKADQLAQQAHSNRKLLDIA [ovine corticotropin-releasing factor] was tested, and the IC50 (rat CRFR1α (rat), P35353) was 1.8 nM, the IC50 [1] was 450 nM and the IC50 [2] was 160 nM.
